Test results published in patent US20230103885A1 (CRISPR THERAPEUTICS, published 2023).

What was measured:
Total human IgG [1] = target: T1, Total human IgG (human); assay: indirect ELISA, purified native antibody at 31.25 ng/ml (1:32,000)
T1 construct: also called coating antigen D
Method: (§1) In the first (native) method, hybridoma cells (29E4B5) were cultured in low IgG culture medium in a roller bottle for 10 days. The supernatants were collected and protein A purified to obtain purified antibodies. The purified antibodies were analyzed for the ability to bind the FMC63-scFv protein and anti-CD19 CAR T cells using ELISA (Table 8).
(§2) A: Recombinant FMC63-scFv protein B: […] (FMC63-scFv linker peptide)(SEQ ID NO: 6) C: His-tagged protein D: Total human IgG The titer was the highest dilution where the Signal/Blank (S/B) ratio was ≥2.1. OD₄₅₀ for Blank was the average of two technical replicates. The starting concentration was 1 mg/ml, and the corresponding dilution ratio was calculated based on the actual concentration.

[2] = target: T2, FMC63-scFv linker peptide; assay: as above
T2 construct: also called coating antigen B
T2 peptide: TGSTSGSGKPGSGEGSTKG
Method: as §1, §2

[3] = target: T3, Recombinant FMC63-scFv protein; assay: as above
T3 construct: also called His-tagged single-chain variable fragment of mouse anti-human CD19 antibody FMC63; coating antigen A
Method: as §1, §2

[4] = target: T4, irrelevant His-tagged protein; assay: as above
T4 construct: also called coating antigen C
Method: as §1, §2

Total human IgG [5] = target: T1, Total human IgG; assay: indirect ELISA, purified native antibody at 62.50 ng/ml (1:16,000)
Method: as §1, §2

[6] = target: T2, FMC63-scFv linker peptide; assay: as above
Method: as §1, §2

[7] = target: T3, Recombinant FMC63-scFv protein; assay: as above
Method: as §1, §2

[8] = target: T4, irrelevant His-tagged protein; assay: as above
Method: as §1, §2

Total human IgG [9] = target: T1, Total human IgG; assay: indirect ELISA, purified native antibody at 7.81 ng/ml (1:128,000)
Method: as §1, §2

[10] = target: T2, FMC63-scFv linker peptide; assay: as above
Method: as §1, §2

[11] = target: T3, Recombinant FMC63-scFv protein; assay: as above
Method: as §1, §2

[12] = target: T4, irrelevant His-tagged protein; assay: as above
Method: as §1, §2

Total human IgG [13] = target: T1, Total human IgG; assay: indirect ELISA, purified native antibody; highest dilution with Signal/Blank >=2.1
Method: as §1, §2

[14] = target: T2, FMC63-scFv linker peptide; assay: as above
Method: as §1, §2

[15] = target: T3, Recombinant FMC63-scFv protein; assay: as above
Method: as §1, §2

[16] = target: T5, anti-CD19 CAR comprising the anti-CD19 scFv of SEQ ID NO:1; assay: flow cytometry on anti-CD19 CAR T cells, dilution 1:200
T5 construct: also called anti-CD19 chimeric antigen receptor; anti-CD19 CAR T cells
Excerpt: (§3) The 29E4B5 antibodies produced using the first or the second method were compared with a reference anti-FMC63-scFv antibody (rec_mab3) for the ability to bind to the anti-CD19 CAR T cells using flow cytometry. Both methods produced 29E4B5 antibodies with higher affinity to the anti-CD19 cells than rec_mab3, showing higher CAR positive percentage even at 1:6,400 dilutions (Table 9).

Total human IgG [17] = target: T1, Total human IgG; assay: indirect ELISA, purified native antibody at 125 ng/ml (1:8,000)
Method: as §1, §2

[18] = target: T2, FMC63-scFv linker peptide; assay: as above
Method: as §1, §2

[19] = target: T3, Recombinant FMC63-scFv protein; assay: as above
Method: as §1, §2

[20] = target: T4, irrelevant His-tagged protein; assay: as above
Method: as §1, §2

Total human IgG [21] = target: T1, Total human IgG; assay: indirect ELISA, purified native antibody at 1,000 ng/ml (1:1,000)
Method: as §1, §2

[22] = target: T2, FMC63-scFv linker peptide; assay: as above
Method: as §1, §2

[23] = target: T3, Recombinant FMC63-scFv protein; assay: as above
Method: as §1, §2

[24] = target: T4, irrelevant His-tagged protein; assay: as above
Method: as §1, §2

[25] = target: T5, anti-CD19 CAR comprising the anti-CD19 …; assay: flow cytometry on anti-CD19 CAR T cells, dilution 1:400
Excerpt: as §3

[26] = target: T5, anti-CD19 CAR comprising the anti-CD19 …; assay: flow cytometry on anti-CD19 CAR T cells, dilution 1:1600
Excerpt: as §3

T3 sequence (scFv, as listed by the source): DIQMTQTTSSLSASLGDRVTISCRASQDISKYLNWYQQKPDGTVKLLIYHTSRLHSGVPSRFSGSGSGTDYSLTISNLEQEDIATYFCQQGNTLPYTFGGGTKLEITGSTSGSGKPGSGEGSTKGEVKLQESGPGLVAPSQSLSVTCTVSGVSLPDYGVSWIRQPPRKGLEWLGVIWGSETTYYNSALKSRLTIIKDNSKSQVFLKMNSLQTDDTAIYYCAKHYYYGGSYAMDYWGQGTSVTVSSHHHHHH

B1: mouse anti-FMC63-scFv monoclonal antibody 29E4B5 (antibody, mouse IgG1, kappa, V domains shown)
VH: EVKLLQSGGGLVQPGGSLKLSCAASGIDFSRYWMSWVRRAPGKGLEWIGEINLDSSTKNYAPSLKDKFIISRDNAKNTLYLQMSKVRSEDTALYYCARNYVGMDYWGQGTSVTVSS
VL: DIVLTQSPASLAVSLGQRATISCRASKSVSSSDYTYMHWYQQKPGQPPKLLIYLASNLESGVPARFSGSGSGTDFTLNIHPVEEEDAATYYCQHSRELPPTFGGGTKLEIKR
notes: Hybridoma-derived antibody (culture supernatant, microscale purified, or protein A purified native lot), isotype IgG1, kappa; These are left out by the residue ranges; also called 29E4B5-1; 29E4B5-1 (Native)
B1 gave an OD450 (Total human IgG [1]) of 0.076 OD450, an OD450 [2] of 0.061 OD450 and an OD450 [3] of 1.32 OD450. It also gave an OD450 [4] of 0.059 OD450, an OD450 (Total human IgG [5]) of 0.071 OD450 and an OD450 [6] of 0.075 OD450. It also gave an OD450 [7] of 1.71 OD450, an OD450 [8] of 0.051 OD450 and an OD450 (Total human IgG [9]) of 0.064 OD450. For the same binder, the OD450 [10] was 0.076 OD450, the OD450 [11] was 0.676 OD450 and the OD450 [12] was 0.06 OD450. The Titer (Total human IgG [13]) was < 1000 dilution (1:x), the Titer [14] was < 1000 dilution (1:x) and the Titer [15] was 512000 dilution (1:x). For the same binder, the “% CAR+” value [16] was 67.9%, the OD450 (Total human IgG [17]) was 0.069 OD450 and the OD450 [18] was 0.059 OD450. For the same binder, the OD450 [19] was 1.79 OD450, the OD450 [20] was 0.057 OD450 and the OD450 (Total human IgG [21]) was 0.073 OD450. For the same binder, the OD450 [22] was 0.064 OD450, the OD450 [23] was 1.88 OD450 and the OD450 [24] was 0.059 OD450. The “% CAR+” value [25] was 67.6% and the “% CAR+” value [26] was 67.9%.
